The values that follow come from US20200148778A1.

Like-named read-outs stand apart in the source and are kept apart here.

The term Kd denotes the concentration at which binding is half-saturated. Broadly, the EC50 is the concentration needed to bring the measured effect to its halfway point. As usually defined, the IC50 is the concentration that gives 50% inhibition.

The target of test [1] is His-tagged human CD40 (h-CD40-his) recombinant protein (human) (UniProt P25942). Description: Biacore X100, antibody captured by anti-human antibody on CM5 chip, CD40 antigen as analyte, 1:1 model. A general note: SPR reads the build-up and loss of mass on a sensor chip optically.
Test [2] deals with human CD40 on HEK293 cells stably transfected with the human CD40 gene (HEK-Blue CD40L cells) (human) (UniProt P25942). Nature of the test: HEK293-CD40 cells binding; method not described.
In test [3] the target is His-tagged human CD40 (h-CD40-his) recombinant protein (human) (UniProt P25942). Nature of the test: ELISA, human CD40-his coated. For orientation: An ELISA detects its analyte on a solid surface through an enzyme-linked reagent.
For test [4] the target is unchanged. Nature of the test: ELISA, human CD40-his coated. The source holds these as a separate data set.
For test [5], the target named is human CD40 on HEK293 cells stably transfected with the human CD40 gene (HEK-Blue CD40L cells) (human) (UniProt P25942). Description: HEK293-CD40 cells binding; method not described. This is another data set of the same source.
The target of test [6] is Fc-tagged human CD40 (h-CD40-Fc) recombinant protein (human) (UniProt P25942). Nature of the test: hCD40/hCD40L blocking ELISA, CD40L as competitor.
The target is the same in test [7]. Description: hCD40/hCD40L blocking ELISA, CD40L as competitor. This is another data set of the same source.
In test [8] the target is His-tagged human CD40 (h-CD40-his) recombinant protein (human) (UniProt P25942). Nature of the test: Biacore X100, antibody captured by anti-human antibody on CM5 chip, CD40 antigen as analyte, 1:1 model. The source holds these as a separate data set.
Test [9] deals with His-tagged rhesus CD40 (rhesus-CD40-his) recombinant protein (rhesus) (UniProt F6SNI1). Nature of the test: ELISA, rhesus CD40-his coated.
Sequence of His-tagged rhesus CD40 (rhesus-CD40-his) recombinant protein (rhesus) (F6SNI1 entry or part of it): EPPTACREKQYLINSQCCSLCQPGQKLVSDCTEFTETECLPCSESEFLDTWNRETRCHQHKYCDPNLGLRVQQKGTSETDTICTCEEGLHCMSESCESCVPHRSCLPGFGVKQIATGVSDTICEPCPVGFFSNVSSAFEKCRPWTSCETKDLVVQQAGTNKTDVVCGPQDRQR

Sequence of His-tagged human CD40 (h-CD40-his) recombinant protein (human) (P25942 21-193 limits assumed): as the sequence (F6SNI1 entry or part of it) above, with S43G, R56H, L89W, M92T, S95A, P101L, L106S, R142H, Q172L counted along it
Sequence of Fc-tagged human CD40 (h-CD40-Fc) recombinant protein (human) (P25942 21-193 limits assumed): as the sequence (F6SNI1 entry or part of it) above, with S43G, R56H, L89W, M92T, S95A, P101L, L106S, R142H, Q172L counted along it
Sequence of human CD40 on HEK293 cells stably transfected with the human CD40 gene (HEK-Blue CD40L cells) (human) (P25942 21-277): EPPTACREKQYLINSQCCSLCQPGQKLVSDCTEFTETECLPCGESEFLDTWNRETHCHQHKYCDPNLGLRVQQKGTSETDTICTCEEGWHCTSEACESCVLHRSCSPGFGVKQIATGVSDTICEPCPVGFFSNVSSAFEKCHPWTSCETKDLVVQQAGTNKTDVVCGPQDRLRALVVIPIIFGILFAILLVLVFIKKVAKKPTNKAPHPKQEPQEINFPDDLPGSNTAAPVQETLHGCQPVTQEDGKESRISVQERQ

B1: Alligator reference (hIgG1) (antibody, INN chains, looked up, V domains shown)
VH: EVQLLESGGGLVQPGGSLRLSCAASGFTFSTYGMHWVRQAPGKGLEWLSYISGGSSYIFYADSVRGRFTISRDNSENALYLQMNSLRAEDTAVYYCARILRGGSGMDLWGQGTLVTVSS
VL: QSVLTQPPSASGTPGQRVTISCTGSSSNIGAGYNVYWYQQLPGTAPKLLIYGNINRPSGVPDRFSGSKSGTSASLAISGLRSEDEADYYCAAWDKSISGLVFGGGTKLTVL
In the case of B1, the Kd in test [1] was found to be 166 nM; in test [8], 65.9 nM. In addition, the EC50 is 1.36 µg/mL in test [2]; 0.00329 µg/mL in [3]; 0.00129 µg/mL in test [4]; 0.397 µg/mL in test [5]; 0.00124 µg/mL in [9]. Besides, the IC50 in [6] is 0.723 µg/mL; in test [7], 0.647 µg/mL.
